Results taken from publication PMC5563082 (2017).
Like-named read-outs stand apart in the source and are kept apart here. One block for each binder: values may come before it.

Legend:
Assay in all cases: SPR
[1] = molecular target: T1, human NL4_(ECTO) (NL4(X); Gln42-Glu602), immobilised for SPR (human, UniProt Q8N0W4-1 42-602, biotin on the Avitag (in vivo biotinylation by BirA))
T1 chain: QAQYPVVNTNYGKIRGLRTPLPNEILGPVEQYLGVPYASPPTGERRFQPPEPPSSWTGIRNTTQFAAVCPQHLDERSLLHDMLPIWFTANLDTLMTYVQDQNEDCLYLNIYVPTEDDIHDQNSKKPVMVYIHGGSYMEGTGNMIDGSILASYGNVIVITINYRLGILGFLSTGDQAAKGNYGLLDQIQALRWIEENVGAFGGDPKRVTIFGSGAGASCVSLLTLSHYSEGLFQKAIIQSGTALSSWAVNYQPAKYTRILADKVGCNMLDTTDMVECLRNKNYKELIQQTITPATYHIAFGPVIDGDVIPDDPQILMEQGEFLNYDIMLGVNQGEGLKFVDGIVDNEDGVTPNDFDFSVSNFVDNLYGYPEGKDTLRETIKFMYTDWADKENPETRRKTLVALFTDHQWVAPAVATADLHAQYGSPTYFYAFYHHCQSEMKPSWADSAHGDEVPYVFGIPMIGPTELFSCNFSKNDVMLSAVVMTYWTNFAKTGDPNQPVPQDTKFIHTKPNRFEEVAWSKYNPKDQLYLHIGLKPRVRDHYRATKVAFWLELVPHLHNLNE

[2] = molecular target: T2, human NL5_(ECTO) (NL4(Y); Gln42-Glu602), immobilised for SPR (human, UniProt Q8NFZ3-1 42-602, biotin on the Avitag (in vivo biotinylation by BirA))
T2 chain: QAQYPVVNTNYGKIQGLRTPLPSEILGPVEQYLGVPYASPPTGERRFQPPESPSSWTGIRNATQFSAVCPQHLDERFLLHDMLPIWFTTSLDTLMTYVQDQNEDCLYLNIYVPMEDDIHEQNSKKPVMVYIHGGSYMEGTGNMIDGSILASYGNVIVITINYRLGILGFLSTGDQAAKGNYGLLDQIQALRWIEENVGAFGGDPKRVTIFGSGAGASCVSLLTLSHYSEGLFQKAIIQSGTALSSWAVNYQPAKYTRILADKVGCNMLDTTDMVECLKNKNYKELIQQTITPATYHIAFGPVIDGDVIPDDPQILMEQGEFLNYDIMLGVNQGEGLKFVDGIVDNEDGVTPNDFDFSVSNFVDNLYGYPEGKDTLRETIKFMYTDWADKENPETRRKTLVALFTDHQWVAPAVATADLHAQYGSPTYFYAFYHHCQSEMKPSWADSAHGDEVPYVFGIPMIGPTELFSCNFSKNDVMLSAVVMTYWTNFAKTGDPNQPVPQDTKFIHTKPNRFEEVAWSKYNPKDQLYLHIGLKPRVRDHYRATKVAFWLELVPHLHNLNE

[3] = molecular target: T3, human NL3(–A)_(ECTO) (Gln38-Asp636), immobilised for SPR (human, UniProt Q9NZ94-1 38-636, –A: nothing between Asp152 and Asp193, biotin on the Avitag (in vivo biotinylation by BirA))
T3 sequence (Q9NZ94 other isoform, or with tags, fused parts or gaps –A: nothing between Asp152 and Asp193): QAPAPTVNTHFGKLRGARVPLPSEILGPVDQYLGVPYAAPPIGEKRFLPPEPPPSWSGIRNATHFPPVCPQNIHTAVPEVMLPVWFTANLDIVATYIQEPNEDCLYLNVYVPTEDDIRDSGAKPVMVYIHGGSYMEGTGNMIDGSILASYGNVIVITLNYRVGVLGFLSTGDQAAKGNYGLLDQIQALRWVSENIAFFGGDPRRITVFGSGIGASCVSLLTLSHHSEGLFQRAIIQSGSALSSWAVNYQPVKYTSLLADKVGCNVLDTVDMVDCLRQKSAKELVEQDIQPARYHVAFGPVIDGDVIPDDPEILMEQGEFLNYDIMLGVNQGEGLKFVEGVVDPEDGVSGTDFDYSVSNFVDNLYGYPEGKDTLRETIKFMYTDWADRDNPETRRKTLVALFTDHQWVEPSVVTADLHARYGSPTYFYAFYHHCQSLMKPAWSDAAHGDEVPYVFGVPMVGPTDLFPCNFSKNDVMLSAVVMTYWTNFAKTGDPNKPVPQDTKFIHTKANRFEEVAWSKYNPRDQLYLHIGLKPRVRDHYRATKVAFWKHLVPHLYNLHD

[4] = molecular target: T4, human NL1(–A–B)_(ECTO), biotinylated and immobilised for SPR (human, biotin on the Avitag (in vivo biotinylation by BirA))
T4 chain: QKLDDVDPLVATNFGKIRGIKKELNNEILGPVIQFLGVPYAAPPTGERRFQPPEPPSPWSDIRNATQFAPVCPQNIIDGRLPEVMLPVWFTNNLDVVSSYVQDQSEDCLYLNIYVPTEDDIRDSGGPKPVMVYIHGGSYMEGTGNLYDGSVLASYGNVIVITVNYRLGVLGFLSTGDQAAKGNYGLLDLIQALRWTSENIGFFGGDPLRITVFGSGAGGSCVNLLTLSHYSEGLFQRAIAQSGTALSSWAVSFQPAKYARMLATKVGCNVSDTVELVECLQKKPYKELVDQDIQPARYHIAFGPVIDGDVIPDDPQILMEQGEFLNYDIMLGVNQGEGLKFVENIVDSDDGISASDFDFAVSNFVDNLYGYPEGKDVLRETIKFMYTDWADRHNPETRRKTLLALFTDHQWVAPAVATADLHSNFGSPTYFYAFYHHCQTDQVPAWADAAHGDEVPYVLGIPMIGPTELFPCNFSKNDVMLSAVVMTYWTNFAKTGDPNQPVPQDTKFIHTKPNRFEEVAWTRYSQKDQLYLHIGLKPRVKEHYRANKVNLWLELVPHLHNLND

[5] = molecular target: T3, human NL3(–A)_(ECTO) (Gln38-Asp636), …; remark: listed apart in the source
[6] = molecular target: human NL2(–A)_(ECTO) (Glu38-His612), immobilised for SPR (human, UniProt Q8NFZ4 38-612, –A: GPLTKKRDEATLNPPDT between Asp152 and Asp170 absent, biotin on the Avitag (in vivo biotinylation by BirA))
Sequence of human NL2(–A)_(ECTO) (Glu38-His612), immobilised for SPR (Q8NFZ4 other isoform, or with tags, fused parts or gaps with the stated changes): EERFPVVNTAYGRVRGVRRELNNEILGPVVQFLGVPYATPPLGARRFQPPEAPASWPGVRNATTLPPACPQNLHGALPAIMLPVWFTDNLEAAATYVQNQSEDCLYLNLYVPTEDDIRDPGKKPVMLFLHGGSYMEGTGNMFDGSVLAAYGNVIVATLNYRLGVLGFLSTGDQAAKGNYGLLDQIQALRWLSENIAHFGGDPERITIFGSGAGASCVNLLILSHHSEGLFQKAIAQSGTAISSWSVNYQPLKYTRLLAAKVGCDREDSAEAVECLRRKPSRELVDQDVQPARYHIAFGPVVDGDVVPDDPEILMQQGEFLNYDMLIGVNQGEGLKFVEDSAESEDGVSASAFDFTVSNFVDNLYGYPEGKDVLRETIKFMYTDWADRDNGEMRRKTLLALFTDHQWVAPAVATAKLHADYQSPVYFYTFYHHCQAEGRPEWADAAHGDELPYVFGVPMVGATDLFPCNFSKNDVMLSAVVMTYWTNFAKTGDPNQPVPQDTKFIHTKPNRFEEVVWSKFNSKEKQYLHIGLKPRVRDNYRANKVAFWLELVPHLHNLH

B1: human MDGA1 extracellular domain (MDGA1_(ECTO); Gln19-Lys925) (domain or fragment)
chain: QGVYAPAQAQIVHAGQACVVKEDNISERVYTIREGDTLMLQCLVTGHPRPQVRWTKTAGSASDKFQETSVFNETLRIERIARTQGGRYYCKAENGVGVPAIKSIRVDVQYLDEPMLTVHQTVSDVRGNFYQEKTVFLRCTVNSNPPARFIWKRGSDTLSHSQDNGVDIYEPLYTQGETKVLKLKNLRPQDYASYTCQVSVRNVCGIPDKAITFRLTNTTAPPALKLSVNETLVVNPGENVTVQCLLTGGDPLPQLQWSHGPGPLPLGALAQGGTLSIPSVQARDSGYYNCTATNNVGNPAKKTVNLLVRSMKNATFQITPDVIKESENIQLGQDLKLSCHVDAVPQEKVTYQWFKNGKPARMSKRLLVTRNDPELPAVTSSLELIDLHFSDYGTYLCMASFPGAPVPDLSVEVNISSETVPPTISVPKGRAVVTVREGSPAELQCEVRGKPRPPVLWSRVDKEAALLPSGLPLEETPDGKLRLERVSRDMSGTYRCQTARYNGFNVRPREAQVQLNVQFPPEVEPSSQDVRQALGRPVLLRCSLLRGSPQRIASAVWRFKGQLLPPPPVVPAAAEAPDHAELRLDAVTRDSSGSYECSVSNDVGSAACLFQVSAKAYSPEFYFDTPNPTRSHKLSKNYSYVLQWTQREPDAVDPVLNYRLSIRQLNQHNAVVKAIPVRRVEKGQLLEYILTDLRVPHSYEVRLTPYTTFGAGDMASRIIHYTEPINSPNLSDNTCHFEDEKICGYTQDLTDNFDWTRQNALTQNPKRSPNTGPPTDISGTPEGYYMFIETSRPRELGDRARLVSPLYNASAKFYCVSFFYHMYGKHIGSLNLLVRSRNKGALDTHAWSLSGNKGNVWQQAHVPISPSGPFQIIFEGVRGPGYLGDIAIDDVTLKKGECPRKQTDPNK
Kd [1]: 14.7 µM | Kd [2]: 23.2 µM | Kd [3]: 14.6 µM | Kd [4]: 3.62 µM | Kd [5]: 17.1 µM

B4: human MDGA2 extracellular domain (MDGA2_(ECTO); Gln21-Lys927) (domain or fragment)
chain: QGVYAPPTVRIVHSGLACNIEEERYSERVYTIREGETLELTCLVTGHPRPQIRWTKTAGSASDRFQDSSVFNETLRITNIQRHQGGRYYCKAENGLGSPAIKSIRVDVYYLDDPVVTVHQSIGEAKEQFYYERTVFLRCVANSNPPVRYSWRRGQEVLLQGSDKGVEIYEPFFTQGETKILKLKNLRPQDYANYSCIASVRNVCNIPDKMVSFRLSNKTASPSIKLLVDDPIVVNPGEAITLVCVTTGGEPAPSLTWVRSFGTLPEKTVLNGGTLTIPAITSDDAGTYSCIANNNVGNPAKKSTNIIVRALKKGRFWITPDPYHKDDNIQIGREVKISCQVEAVPSEELTFSWFKNGRPLRSSERMVITQTDPDVSPGTTNLDIIDLKFTDFGTYTCVASLKGGGISDISIDVNISSSTVPPNLTVPQEKSPLVTREGDTIELQCQVTGKPKPIILWSRADKEVAMPDGSMQMESYDGTLRIVNVSREMSGMYRCQTSQYNGFNVKPREALVQLIVQYPPAVEPAFLEIRQGQDRSVTMSCRVLRAYPIRVLTYEWRLGNKLLRTGQFDSQEYTEYAVKSLSNENYGVYNCSIINEAGAGRCSFLVTGKAYAPEFYYDTYNPVWQNRHRVYSYSLQWTQMNPDAVDRIVAYRLGIRQAGQQRWWEQEIKINGNIQKGELITYNLTELIKPEAYEVRLTPLTKFGEGDSTIRVIKYSAPVNPHLREFHCGFEDGNICLFTQDDTDNFDWTKQSTATRNTKYTPNTGPNADRSGSKEGFYMYIETSRPRLEGEKARLLSPVFSIAPKNPYGPTNTAYCFSFFYHMYGQHIGVLNVYLRLKGQTTIENPLWSSSGNKGQRWNEAHVNIYPITSFQLIFEGIRGPGIEGDIAIDDVSIAEGECAKQDLATK
Kd [1]: 14.4 µM | Kd [6]: 0.768 µM | Kd [2]: 21.9 µM | Kd [3]: 27.6 µM | Kd [4]: 1.69 µM | Kd [5]: 24.9 µM

Continued, values first:

Kd [1]: 9.66 µM | Kd [6]: 4 µM | Kd [2]: 14.2 µM | Kd [3]: 22.1 µM | Kd [4]: 2.63 µM | Kd [5]: 36.8 µM
B2: human β-neurexin-1 LNS6 domain with SS4 (β-NRX1_(LNS6)(+4)) (domain or fragment)
chain: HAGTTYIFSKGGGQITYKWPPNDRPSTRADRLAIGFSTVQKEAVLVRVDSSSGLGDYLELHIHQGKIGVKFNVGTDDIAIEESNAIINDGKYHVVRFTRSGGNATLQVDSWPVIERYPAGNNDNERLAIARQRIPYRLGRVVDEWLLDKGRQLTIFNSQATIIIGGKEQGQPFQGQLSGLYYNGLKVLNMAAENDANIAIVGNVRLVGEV

Kd [1]: 2.49 µM | Kd [6]: 0.699 µM | Kd [2]: 3.16 µM | Kd [4]: 0.64 µM | Kd [5]: 9.48 µM
B3: human β-neurexin-1 LNS6 domain lacking SS4 (β-NRX1_(LNS6)(–4); His85-Val265) (domain or fragment)
chain: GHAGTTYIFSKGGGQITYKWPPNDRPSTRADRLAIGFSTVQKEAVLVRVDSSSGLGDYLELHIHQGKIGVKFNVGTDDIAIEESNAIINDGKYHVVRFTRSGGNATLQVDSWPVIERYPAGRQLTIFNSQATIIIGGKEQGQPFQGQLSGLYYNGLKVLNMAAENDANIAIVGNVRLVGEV
